{"source": "patent US20250381255A1", "about": "(ANOKION, published 2025)", "binders": {"B1": {"name": "mAb-60819 (antibody, V domains shown)", "VH": "QVQLVQSGAEVKKPGSSVKVSCKASGGTFSNYAISWVRQAPGQGLEWMGGIIPIFGTANYAQKFQGRVTITADESTSTAYMELSSLRSEDTAVYYCAREARVAGTRPRGFDIWGQGTMVTVSS", "VL": "EIVLTQSPATLSLSPGERATLSCRASQSVSSYLAWYQQKPGQAPRLLIYDASNRATGIPARFSGSGSGTDFTLTISSLEPEDFAVYYCQQLNNFPPTFGGGTKVEIK"}, "B2": {"name": "mAb-60869 (antibody, V domains shown)", "VH": "EVQLLESGGGLVQPGGSLRLSCAASGFTFSNYAMSWVRQAPGKGLEWVSAISGSGGSTYHADSVKGRFTISRDNSKNTLYLQMNSLRAEDTAVYYCARDAPYRGGHYFDLWGRGTLVTVSS", "VL": "B1 VL with N92A, N93S, F94W", "notes": "also called anti-ASGR1 antibody mAb-60869"}, "B3": {"name": "mAb-60856 (antibody, V domains shown)", "VH": "not shown", "VL": "B1 VL with N53K, L91D, N92S, F94H, P96L", "notes": "also called anti-ASGR1 antibody mAb-60856"}, "B4": {"name": "mAb-60881 (antibody, V domains shown)", "VH": "QVQLQESGPGLVKPSETLSLTCAVSGYSISSGYYWGWIRQPPGKGLEWIGSIYHSGSTYYNPSLKSRVTISVDTSKNQFSLKLSSVTAADTAVYYCAREAGYPERGYGMDVWGQGTTVTVSS", "VL": "EIVMTQSPATLSVSPGERATLSCRASQSVSSNLAWYQQKPGQAPRLLIYGASTRATGIPARFSGSGSGTEFTLTISSLQSEDFAVYYCQQYFHHPFTFGGGTKVEIK", "notes": "Made as IgG"}}, "key": {"[1]": {"target": "T1, human asialoglycoprotein receptor 1 (ASGR1) extracellular domain (human, UniProt P07306 62-291)", "T1 construct": "The methods speak of 'human ASGR1-His'; The results paragraph says only 'ASGR1'; also called human ASGR1-His; ASGR1 ECD", "T1 sequence": "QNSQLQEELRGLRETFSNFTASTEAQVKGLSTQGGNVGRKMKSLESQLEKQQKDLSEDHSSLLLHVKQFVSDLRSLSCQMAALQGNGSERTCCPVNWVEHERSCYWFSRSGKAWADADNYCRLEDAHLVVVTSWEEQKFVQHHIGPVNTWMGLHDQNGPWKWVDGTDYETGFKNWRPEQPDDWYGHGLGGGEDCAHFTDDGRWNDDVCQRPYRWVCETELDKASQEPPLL", "experiment": "apparent KD from biochemical characterisation; method not named for this value (Example 1 describes Octet BLI: IgG on AHC sensors, 100 nM ASGR1, 1:1 model); mAb-60819"}, "[2]": {"target": "T1, human asialoglycoprotein receptor 1 …", "experiment": "apparent KD from biochemical characterisation; method not named for this value (Example 1 describes Octet BLI: IgG on AHC sensors, 100 nM ASGR1, 1:1 model); mAb-60869"}, "[3]": {"target": "T1, human asialoglycoprotein receptor 1 …", "experiment": "apparent KD from biochemical characterisation; method not named for this value (Example 1 describes Octet BLI: IgG on AHC sensors, 100 nM ASGR1, 1:1 model); mAb-60856"}, "[4]": {"target": "T1, human asialoglycoprotein receptor 1 …", "experiment": "apparent KD from biochemical characterisation; method not named for this value (Example 1 describes Octet BLI: IgG on AHC sensors, 100 nM ASGR1, 1:1 model)"}}, "note": "Substitutions are numbered along the chain they refer to.", "data": [{"binder": "B1", "values": [{"measurement": "Kd", "setting": "[1]", "result": 9.29, "unit": "nM"}]}, {"binder": "B2", "values": [{"measurement": "Kd", "setting": "[2]", "result": 3.22, "unit": "nM"}]}, {"binder": "B3", "values": [{"measurement": "Kd", "setting": "[3]", "result": 9.29, "unit": "nM"}]}, {"binder": "B4", "values": [{"measurement": "Kd", "setting": "[4]", "result": "~3", "unit": "nM"}]}]}
